In patent US20210324028A1:
Read-outs that look alike come from different tables or passages of the source.

Key:
Experiment in all cases: SPR, steady state
human IL-2Rβ (human) [1] = target: human IL-2Rβ (human) (UniProt P14784)
human IL-2Rβ (human) [2] = target: human IL-2Rβ (human) (UniProt P14784); remark: listed apart in the source
human IL-15Rα (human) = human IL-15Rα (human) (UniProt Q13261)
human IL-15Rα (human), sequence (Q13261 31-205 limits assumed): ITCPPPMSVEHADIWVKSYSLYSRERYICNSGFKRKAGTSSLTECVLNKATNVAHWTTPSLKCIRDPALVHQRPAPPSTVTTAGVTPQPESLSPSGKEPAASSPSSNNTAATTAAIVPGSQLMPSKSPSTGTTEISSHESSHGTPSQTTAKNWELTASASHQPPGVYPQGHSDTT

human IL-2Rβ (human), sequence (P14784 27-240 limits assumed): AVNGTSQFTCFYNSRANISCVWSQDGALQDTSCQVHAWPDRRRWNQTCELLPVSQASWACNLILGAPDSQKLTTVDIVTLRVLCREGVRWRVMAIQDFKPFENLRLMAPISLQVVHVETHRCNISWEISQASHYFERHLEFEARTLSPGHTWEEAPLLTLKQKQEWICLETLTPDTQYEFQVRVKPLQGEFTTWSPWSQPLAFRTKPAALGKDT

Kd (human IL-2Rβ (human) [1]) | Kd (human IL-2Rβ (human) [2]) | Kd (human IL-15Rα (human)) | Substance
69.6 nM | 54.4 nM |  | IL-15Rasu-IL-15 (non-fusion, wild-type) (from UniProt Q13261 31-95)
 | > 500 nM | 130 nM | hIL-15 V49R/E64 N/S (ligand)
